# From the DeepSol protein solubility set
# Experiment: soluble on expression in E. coli; label from the status in PepcDB or PDB records
row,Sequence,soluble on expression in E. coli
1,MSADEPSPEDEKYLESLRDLLKISQEFDASNAKQNDEPEKTAVEVESAETRTDESEKSIDIPREQQLLPSERVEPLKSMVEPEYVKKVIRQMDTMTAEQLKQALMKIKVSTGGNKKTLRKRVAQYYRKENALLNRKMEPNADKTARFFDYLIAIDFECTCVEIIYDYPHEIIELPAVLIDVREMKIISEFRTYVRPVRNPKLSEFCMQFTKIAQETVDAAPYFREALQRLYTWMRKFNLGQKNSRFAFVTDGPHDMWKFMQFQCLLSNIRMPHMFRSFINIKKTFKEKFNGLIKGNGKSGIENMLERLDLSFVGNKHSGLDDATNIAAIAIQMMKLKIELRINQKCSYKENQRSAARKDEERELEDAANVDLTSVDISRRDFQLWMRRLPLKLSSVTRREFINEEYLDCDSCDDLTDDKVKHLHSCDIYEIFDEKTSASFTDSKCLIC,soluble
2,MSADGAEADGSTQVTVEEPVQQPSVVDRVASMPLISSTCDMVSAAYASTKESYPHVKTVCDAAEKGVRTLTAAAVSGAQPILSKLEPQIASASEYAHRGLDKLEENLPILQQPTEKVLADTKELVSSKVSGAQEMVSSAKDTVATQLSEAVDATRGAVQSGVDKTKSVVTGGVQSVMGSRLGQMVLSGVDTVLGKSEEWADNHLPLTDAELARIATSLDGFDVASVQQQRQEQSYFVRLGSLSERLRQHAYEHSLGKLRATKQRAQEALLQLSQVLSLMETVKQGVDQKLVEGQEKLHQMWLSWNQKQLQGPEKEPPKPEQVESRALTMFRDIAQQLQATCTSLGSSIQGLPTNVKDQVQQARRQVEDLQATFSSIHSFQDLSSSILAQSRERVASAREALDHMVEYVAQNTPVTWLVGPFAPGITEKAPEEKK,soluble
3,MSAEKPEVIITYCIQCQWLLRAAWLAQELLSTFSDDLGKVSLQPGTGGAFRITCDGVQLWERKADGGFPEAKVLKQRLRDQIDPARDLGHNDRQTPSNPQ,soluble
4,MSAEQVWQGNFEQLCLFHNLQGRWPGCREGALGRWCTIQRRDYRKGNMSDERKAQLERIGFPLALEHHHHHH,not soluble
5,MSAGVQLPLDLPWRPALGREHFLVAACNASAVALVEAWPHWPAPAACIHGPTGAGKTHLAQVFATRAAAVVLDPAVILGTDPLTLFEGGRAAVIEDADRAGLPEATLFHLLNAARQRGGSLLLTALSPPARWGVHLADLRSRLAALPAEGLCEPDDELMAAVLLKLFSDRGLDVAPGAIGYLLPRMERSFAAARDLVVHADALALREGRAVTVPLLRQLLATPDRADRLEHHHHHH,not soluble
6,MSAKEKFTSLSPAEFFKRNPELAGFPNPARALYQTVRELIENSLDATDVHGILPNIKITIDLIDDARQIYKVNVVDNGIGIPPQEVPNAFGRVLYSSKYVNRQTRGMYGLGVKAAVLYSQMHQDKPIEIETSPVNSKRIYTFKLKIDINKNEPIIVERGSVENTRGFHGTSVAISIPGDWPKAKSRIYEYIKRTYIITPYAEFIFKDPEGNVTYYPRLTNKIPKPPQEVKPHPYGVDREEIKILINNLKRDYTIKEFLVNEFQSIGDTTADKILELAGLKPNKKVKNLTEEEITRLVETFKKDEDFRSPSADSLSVIGEDLIELGLKKIFNPDFAASITRKPKAYQGHPFIVEAGVAFGGSIPVGEEPIVLRYANKIPLIYDEKSDVIWKVVEELDWKRYGIESDQYQMVVMVHLCSTKIPYKSAGKESIAEVENIEKEIKNALMEVARKLKQYLSEKRKEQEAKKKLLAYLKYIPEVSRSLATFLASGNKELVSKYQNEISEGLFKLISKKLDLINIEEYRKVYRVDSE,soluble
7,MSALNELLHDDAIDLNAHAETWQEAIAQAGALLEKTGAITSAYTESMISSVEEQGPYIVVAPGFAFAHARPSEAVKRTAIAWTRLDSPVEFHHSSNDPVTLVVALAAQDDQAHTAAMREIAQVLGSRRRDLDTVATVAELRGVLEASKRRKSRGVAGGATHVTAQDSVESKGKILTVCGNGLGTSLFLKNTLDQVLDTWGWGPFVSTEATDTISAKGRAKEADFLLTSEEIARTLGDVGVPVYVISNFTSEDEIDAALRELYDV,not soluble
8,MSAPAAGATAGGDDAADRNVEMWKIKRLIKSLELARGNGTSMISLIIPPKDQVARIQRMLAEEYGTASNIKSRVNRLSVLGAITSVQGRLKLYNKVPPNGLVVYCGTIMTDEGKEKKVNIDFEPFKAINTSLYLCDNKFHTEALQGLLADDNKFGFIIMDGNGCLFGTLQGNTREVLHKFTVDLPKKHGRGGQSAVRFARLRNEKRHNYVRKVAENSVEQFIKNDKVTVAGLILAGSADFKTELGQSDMFDQRLQAKMIKTVDIAYGGENGFNQAIELAADTLASVKFIQEKKLIGGYFDEISQDTGKYVFGVKDTLAALEMGAIETLICWENLDIVRYKMKNSLGEDILLNLRPDEEKDKSHFTDSETGQDMEIIETMPLLEWFANNYKNFGAALEIVTDKSQEGAQFVRGFGGIGGLLRYRVDLAHVDLEDELDNIDLDDY,not soluble
9,MSASSERELYEAWVELLSWMREYAQAKGVRFEKEADFPDFIYRMERPYDLPTTIMTASLSDGLGEPFLLADVSPRHAKLKRIGLRLPRAHIHLHAHYEPGKGLVTGKIPLTKERFFALADRAREALAFA,soluble
10,MSATLPCGMHKCQRLCHKGECLVDEPCKQPCTTPRADCGHPCMAPCHTSSPCPVTACKAKVELQ,soluble
11,MSATNLAVEQLQRVLLPRRGEPADVRSLYLLEAESNKERLEWEDRFSVSVPAGAEVSFQTYFNAFPASYWRRWSQLDSVVLKLKVSGEARVDLYRSKIDGARIGITGSVVKDDFIEFEVSLAPFEDGGWIWFDLTAETDATVEEAGWYAPHAPKAQIMPDGSEVGPFEARATVGIPTFNRPADAVAALEALASDPAVDAVIDTVIMPDQGNKHPADEPGYKAAVEHFGDRFFEFRQGNLGGSGGYSRIMFEALGGVDGKGEAGAAKSPYILYMDDDIAIEPDSVLRALQVARYAKSPILVGGQMLNLQERSHLHTMGEVVGGHDFMWTAAPHVHYDHDFSAHPLHDRGKFDDKPDAPNSRDLHRRIDVDFNGWWMCMIPRVVAEQIGQPLPLFIKWDDAEYGLRARKAGFPTATWPGIAIWHMAWSDKDDAIDWQAYFHLRNRLVVAAMYHQGSVDGIVRSMQKATFKHLLCLEYSTVAIQNEAMKDFLAGPDQLFSILDTSLPRIAAIRKTYPDAVVLPSATELPRATGAPGVPTKDIGGRLAPIKKAMWLAKGLKHSLSKEDASHHEVPQANFAPIEARWFSLSRVDGATVTTADGRGVVYRKRDRDKAKELGKEARALQKQVAERFDELSRAYRNAHPELVSREAWGKVFDEQ,not soluble
12,MSATTKELGNSLWDSLFGTPGVQLTDDDIQNMPYASQYMQLNGGPQLFVVLAFAEDGQQKWVTQDQATLVTQHGRLVKTLLGGDNLIEVNNLAADPLIKPAQIVDGASWTRTMGWTEYQQVRYATARSVFKWDGTDTVKVGSDETPVRVLDEEVSTDQARWHNRYWIDSEGQIRQSEQYLGADYFPVKTTLIKAAKQLEHHHHHH,soluble
13,MSAVLTAEDTLVLASTATPVEMELIMGWLGQQRARHPDSKFDILKLPPRNAPPAALTALVEQLEPGFASSPQSGEDRSIVPVRVIWLPPADRSRAGKVAALLPGRDPYHPSQRQQRRILRTDPRRARVVAGESAKVSELRQQWRDTTVAEHKRDFAQFVSRRALLALARAEYRILGPQYKSPRLVKPEMLASARFRAGLDRIPGATVEDAGKMLDELSTGWSQVSVDLVSVLGRLASRGFDPEFDYDEYQVAAMRAALEAHPAVLLFSHRSYIDGVVVPVAMQDNRLPPVHMFGGINLSFGLMGPLMRRSGMIFIRRNIGNDPLYKYVLKEYVGYVVEKRFNLSWSIEGTRSRTGKMLPPKLGLMSYVADAYLDGRSDDILLQGVSICFDQLHEITEYAAYARGAEKTPEGLRWLYNFIKAQGERNFGKIYVRFPEAVSMRQYLGAPHGELTQDPAAKRLALQKMSFEVAWRILQATPVTATGLVSALLLTTRGTALTLDQLHHTLQDSLDYLERKQSPVSTSALRLRSREGVRAAADALSNGHPVTRVDSGREPVWYIAPDDEHAAAFYRSSVIHAFLETSIVELALAHAKHAEGDRVAAFWAQAMRLRDLLKFDFYFADSTAFRANIAQEMAWHQDWEDHLGVGGNEIDAMLYAKRPLMSDAMLRVFFEAYEIVADVLRDAPPDIGPEELTELALGLGRQFVAQGRVRSSEPVSTLLFATARQVAVDQELIAPAADLAERRVAFRRELRNILRDFDYVEQIARNQFVAREFKARQGRDRILEHHHHHH,not soluble
14,MSCPYIDEDKIVGNVEMELKKGGTFDKLRKQAIEHVKDSKLVHRIENEMLVKVDEIIASSANLTQEEIQRKMKDFMNENAKMRNDINRQIRVEFEKEWVHDELDKEIDEKVNKQLENSI,not soluble
